Measurements: patent US9322000B2, “Methanol dehydrogenase enzymes from Bacillus” (Sinvent AS, priority 2012, dated 2016)

B1: Mdh-MGA3: previously reported plasmid pBM19-encoded NAD-dependent methanol dehydrogenase of B. methanolicus MGA3, SEQ ID NO. 8 (protein)
chain: MTTNFFIPPASVIGRGAVKEVGTRLKQIGAKKALIVTDAFLHSTGLSEEVAKNIREAGVDVAIFPKAQPDPADTQVHEGVDVFKQENCDSLVSIGGGSSHDTAKAIGLVAANGGRINDYQGVNSVEKPVVPVVAITTTAGTGSETTSLAVITDSARKVKMPVIDEKITPTVAIVDPELMVKKPAGLTIATGMDALSHAIEAYVAKGATPVTDAFAIQAMKLINEYLPKAVANGEDIEAREKMAYAQYMAGVAFNNGGLGLVHSISHQVGGVYKLQHGICNSVNMPHVCAFNLIAKTERFAHIAELLGENVAGLSTAAAAERAIVALERINKSFGIPSGYAEMGVKEEDIELLAKNAYEDVCTQSNPRVPTVQDIAQIIKNAM
modifications: Bacillus methanolicus MGA3
B2: Mdh2-MGA3: NAD-dependent methanol dehydrogenase encoded by chromosomal gene mdh2 of B. methanolicus MGA3, SEQ ID NO. 2 (protein)
chain: MTNTQSAFFMPSVNLFGAGSVNEVGTRLADLGVKKALLVTDAGLHGLGLSEKISSIIRAAGVEVSIFPKAEPNPTDKNVAEGLEAYNAENCDSIVTLGGGSSHDAGKAIALVAANGGKIHDYEGVDVSKEPMVPLIAINTTAGTGSELTKFTIITDTERKVKMAIVDKHVTPTLSINDPELMVGMPPSLTAATGLDALTHAIEAYVSTGATPITDALAIQAIKIISKYLPRAVANGKDIEAREQMAFAQSLAGMAFNNAGLGYVHAIAHQLGGFYNFPHGVCNAVLLPYVCRFNLISKVERYAEIAAFLGENVDGLSTYDAAEKAIKAIERMAKDLNIPKGFKELGAKEEDIETLAKNAMKDACALTNPRKPKLEEVIQIIKNAM
modifications: Bacillus methanolicus MGA3
B3: Mdh3-MGA3: NAD-dependent methanol dehydrogenase encoded by chromosomal gene mdh3 of B. methanolicus MGA3, SEQ ID NO. 4 (protein)
chain: MKNTQSAFYMPSVNLFGAGSVNEVGTRLAGLGVKKALLVTDAGLHSLGLSEKIAGIIREAGVEVAIFPKAEPNPTDKNVAEGLEAYNAENCDSIVTLGGGSSHDAGKAIALVAANGGTIHDYEGVDVSKKPMVPLIAINTTAGTGSELTKFTIITDTERKVKMAIVDKHVTPTLSINDPELMVGMPPSLTAATGLDALTHAIEAYVSTGATPITDALAIQAIKIISKYLPRAVANGKDIEAREQMAFAQSLAGMAFNNAGLGYVHAIAHQLGGFYNFPHGVCNAILLPHVCRFNLISKVERYAEIAAFLGENVDGLSTYEAAEKAIKAIERMARDLNIPKGFKELGAKEEDIETLAKNAMNDACALTNPRKPKLEEVIQIIKNAM
modifications: Bacillus methanolicus MGA3

How the values were obtained:
[1] = In vitro Mdh activity in crude cell extracts of recombinant E. coli; format: biochemical; conditions: for In vitro activity: expressed in E. coli, crude cell extract; for ranking of Mdh activity on expression in E. coli: in vitro and in vivo
Excerpt: (§1) The genes coding for Mdh and the Mdh activator protein Act were amplified from pET21a-plasmids harboring genes from B. methanolicus strains MGA3 (mdh-MGA3, mdh2-MGA3, mdh3-MGA3 and act-MGA3) and PB1 (mdh-PB1, mdh1-PB1 and mdh2-PB1). The genes were then cloned either into the pSEVA424 plasmid (mdh genes) or in the pSEVA131 plasmid (act gene). For cloning of mdh-MGA3, mdh-PB1, mdh1-PB1 and act-MGA3, EcoRI and HindIII restrictions sites were used, while mdh2-MGA3, mdh2-PB1 and mdh3-MGA3 were cloned by using EcoRI and PstI restriction sites. The resulting expression vectors were transformed into electrocompetent wt E. coli K-12 (BW25113) and into E. coli K-12 (BW25113) with a deleted frmA gene.
(§2) Expression Experiments For expression experiments, the cells were cultivated in either Luria-Bertani (LB) medium for in vitro assays or in M9 medium for in vivo assays both containing 20 μg/ml streptomycin for pSEVA424. When Act was co-expressed the medium was supplemented with 100 μg/ml ampicillin. Expression was induced when cells reached OD 0.5 (for in vitro tests) or OD 1 (for in vivo tests) by adding 0.1 mM IPTG (final concentration) for 6 hours. Cells were then harvested by centrifugation. For in vitro assays, crude cell extract was prepared by lysing the cells in a French press following ultracentrifugation. Alternatively, cells were resuspended in M9-medium without glucose for in vivo activity measurements. Enzyme Assays
In vitro measurements of Mdh activity: For determination of Mdh activity in crude cell extracts, the Mdh dependent formation of NADH was monitored at 340 nm. The assays were performed either at 37° C. or 45° C. in prewarmed buffer solutions. The Mdh assay contained 10-20 μg enzyme, 50 mM K2HPO4-buffer, pH7.4, 2.5 mM MgCl and 0.5 mM of NAD^+ (final concentrations). After 5 min of preincubation, the reaction was started with 1 M of methanol (final concentration).

[2] = Methanol dehydrogenase assay of purified recombinant MDH proteins (NADH production at 340 nm); format: biochemical; conditions: for Vmax, variable substrate Methanol + Act / Km / Vmax, variable substrate Methanol: 45° C., pH 9.5; for Vmax, variable substrate Methanol: absence of Act
Experimental: (§3) Alcohol dehydrogenase activities were measured spectrophotometrically essentially as described previously (Hektor, Kloosterman et al. (2002) Chem 277(49): 46966-46973) and the reaction mixture contained: 100 mM Glycine-KOH pH 9.5 (unless otherwise stated), 5 mM MgSO4, 0.5 mM NAD^+ and 500 mM alcohol (methanol, ethanol, propanol, 1,3-propanediol, or butanol). NAD^+ was substituted with equal concentrations of NADP^+, FMN^+, and FAD^+, when indicated. The reaction mixture for measurements of formaldehyde reductase activity contained: 50 mM Potassium-phosphate buffer pH=6.7, 0.15 mM NADH, 1 mM DTT and 11.6 mM (0.1-116 mM) formaldehyde. The assay components were mixed in the cuvette and pre-warmed to 45° C., unless otherwise stated. The reactions were started by addition of 5-40 μg of the purified MDH proteins, and the production of NADH was monitored at 340 nm for 4 minutes. One unit of MDH activity was defined as the amount of enzyme needed to produce 1 μmol NADH per minute under the conditions described above. Purified Act (0.1-40 μg) or NudF (20 μg) proteins were added to the reaction mixtures as indicated in the text.
(§4) The purified MDH and Act proteins (20 μg) were used in the kinetic experiments performing the methanol dehydrogenase and the formaldehyde dehydrogenase assays essentially as described above. […] For determination of the Km for NAD^+ (Km,NAD+) and Vmax, the methanol concentration was kept constant at a saturating level (500 mM), while the concentration of NAD^+ was varied (5-1000 μM). […] Act (20 μg) was added to the reaction mixtures for determination of Kμ,MεOH and Vmax values in the presence of this activator, as indicated in the text. In general, the slopes of activity versus time were linear in the measured period (data not shown). Km and Vmax values were calculated by using nonlinear regression with the Microsoft Excel solver-tool to fit the measured data to the Michaelis-Menten equation, as described previously (Jakobsen et al., (2009) Appl Environ Microbiol 75(3): 652-661). The values obtained from the regression were then compared to the values obtained from Lineweaver-Burk and Hanes-Woolf plots to ensure that the global minimum, not a local minimum, had been found.

[3] = Formaldehyde reductase assay of purified MDH proteins; format: biochemical; conditions: 45° C., formaldehyde reductase activity; for Km: read-out: Km, variable substrate Formaldehyde
Experimental: as §3, §4

[4] = In vivo Mdh activity in cell suspensions of recombinant E. coli (formaldehyde accumulating in supernatant); format: cell-based; conditions: E. coli cell suspension
Excerpt: as §1, §2
In vivo measurements of Mdh activity: For determination of Mdh activity in cell suspensions, cells were harvested after IPTG induction, washed and resuspended in M9-medium without glucose and IPTG. OD600 was set to 1 for normalization. […] The assay was started by addition of 1 M methanol and subsequent measurement of accumulating formaldehyde in the supernatant resulting from the methanol dehydrogenase catalyzed oxidation of methanol. The calculated activities were based on the assumption that 1 l of an OD1 culture contains 0.3 g biomass of which 50% is protein.

[5] = methanol 500 mM, read-out: Km, variable substrate NAD+

| Molecule | In vitro activity ([1]; 37° C., +Act) | In vitro activity ([1]; 37° C., −Act) | In vitro activity ([1]; 45° C., +Act) | In vitro activity ([1]; 45° C., −Act) | Vmax, variable substrate Methanol + Act ([2]; 20 μg MDH + 20 μg Act) | Km ([2]; 20 μg MDH + 20 μg Act, read-out: Km, variable substrate Methanol + Act) | Vmax, variable substrate Methanol [2] | Km [2, 5] | reduction of Km,MeOH in the presence of Act ([2]; Act added vs. no Act) | Vmax, variable substrate Formaldehyde [3] | Km [3] | In vivo activity ([4]; 37° C., +Act) | In vivo activity ([4]; 37° C., −Act) | In vivo activity ([4]; 42° C., +Act) | In vivo activity ([4]; 42° C., −Act) | ranking of Mdh activity on expression in E. coli [1] | ranking of Mdh activity on expression in E. coli ([1]; listed as MGA3-Mdh2) | change of Km,MeOH in the presence of Act (in words) ([2]; Act added vs. no Act) |
| --- | --- | --- | --- | --- | --- | --- | --- | --- | --- | --- | --- | --- | --- | --- | --- | --- | --- | --- |
| B1 | 464 mU/mg | 48 mU/mg | 1260 mU/mg | 251 mU/mg | 0.5 U/mg | 12000 µM | 0.08 U/mg | 14 µM | 17 fold | 1.4 U/mg | 1000 µM | 1 mU/mg | 1 mU/mg | 1 mU/mg | 3 mU/mg |  |  |  |
| B2 | 672 mU/mg | 59 mU/mg | 1910 mU/mg | 310 mU/mg | 0.15 U/mg |  | 0.04 U/mg | 22 µM |  | 1.5 U/mg | 5000 µM | 9 mU/mg | 32 mU/mg | 11.3 mU/mg | 45 mU/mg | gave the best results | overall highest activities both in vitro and in vivo | remained essentially the same |
| B3 | 327 mU/mg | 21 mU/mg | 867 mU/mg | 113 mU/mg | 0.45 U/mg |  | 0.09 U/mg | 40 µM |  | 5 U/mg | 15000 µM | 11 mU/mg | 24 mU/mg | 24 mU/mg | 31 mU/mg |  |  | remained essentially the same |
